Measured values from article PMC8298264, “Function of cofactor Akirin2 in the regulation of gene expression in model human neutrophil-like HL60 cells” (Bioscience Reports, 2021).

B1: sp¦P46926¦GNPI1_HUMAN (protein, UniProt P46926 1-289, looked up)
Glucosamine-6-phosphate …: MKLIILEHYSQASEWAAKYIRNRIIQFNPGPEKYFTLGLPTGSTPLGCYKKLIEYYKNGDLSFKYVKTFNMDEYVGLPRDHPESYHSFMWNNFFKHIDIHPENTHILDGNAVDLQAECDAFEEKIKAAGGIELFVGGIGPDGHIAFNEPGSSLVSRTRVKTLAMDTILANARFFDGELTKVPTMALTVGVGTVMDAREVMILITGAHKAFALYKAIEEGVNHMWTVSAFQQHPRTVFVCDEDATLELKVKTVKYFKGLMLVHNKLVDPLYSIKEKETEKSQSSKKPYSD
B2: sp¦Q8WU90¦ZC3HF_HUMAN (protein, UniProt Q8WU90 1-426, looked up)
Zinc finger CCCH …: MPPKKQAQAGGSKKAEQKKKEKIIEDKTFGLKNKKGAKQQKFIKAVTHQVKFGQQNPRQVAQSEAEKKLKKDDKKKELQELNELFKPVVAAQKISKGADPKSVVCAFFKQGQCTKGDKCKFSHDLTLERKCEKRSVYIDARDEELEKDTMDNWDEKKLEEVVNKKHGEAEKKKPKTQIVCKHFLEAIENNKYGWFWVCPGGGDICMYRHALPPGFVLKKDKKKEEKEDEISLEDLIERERSALGPNVTKITLESFLAWKKRKRQEKIDKLEQDMERRKADFKAGKALVISGREVFEFRPELVNDDDEEADDTRYTQGTGGDEVDDSVSVNDIDLSLYIPRDVDETGITVASLERFSTYTSDKDENKLSEASGGRAENGERSDLEEDNEREGTENGAIDAVPVDENLFTGEDLDELEEELNTLDLEE
B3: sp¦P13667¦PDIA4_HUMAN (protein, UniProt P13667 21-645, looked up)
Protein disulfide-isomerase A4: VAGAEGPDEDSSNRENAIEDEEEEEEEDDDEEEDDLEVKEENGVLVLNDANFDNFVADKDTVLLEFYAPWCGHCKQFAPEYEKIANILKDKDPPIPVAKIDATSASVLASRFDVSGYPTIKILKKGQAVDYEGSRTQEEIVAKVREVSQPDWTPPPEVTLVLTKENFDEVVNDADIILVEFYAPWCGHCKKLAPEYEKAAKELSKRSPPIPLAKVDATAETDLAKRFDVSGYPTLKIFRKGRPYDYNGPREKYGIVDYMIEQSGPPSKEILTLKQVQEFLKDGDDVIIIGVFKGESDPAYQQYQDAANNLREDYKFHHTFSTEIAKFLKVSQGQLVVMQPEKFQSKYEPRSHMMDVQGSTQDSAIKDFVLKYALPLVGHRKVSNDAKRYTRRPLVVVYYSVDFSFDYRAATQFWRSKVLEVAKDFPEYTFAIADEEDYAGEVKDLGLSESGEDVNAAILDESGKKFAMEPEEFDSDTLREFVTAFKKGKLKPVIKSQPVPKNNKGPVKVVVGKTFDSIVMDPKKDVLIEFYAPWCGHCKQLEPVYNSLAKKYKGQKGLVIAKMDATANDVPSDRYKVEGFPTIYFAPSGDKKNPVKFEGGDRDLEHLSKFIEEHATKLSRTKEEL
B4: sp¦Q92945¦FUBP2_HUMAN (protein, UniProt Q92945 2-711, looked up)
Far upstream element-binding …: SDYSTGGPPPGPPPPAGGGGGAGGAGGGPPPGPPGAGDRGGGGPGGGGPGGGSAGGPSQPPGGGGPGIRKDAFADAVQRARQIAAKIGGDAATTVNNSTPDFGFGGQKRQLEDGDQPESKKLASQGDSISSQLGPIHPPPRTSMTEEYRVPDGMVGLIIGRGGEQINKIQQDSGCKVQISPDSGGLPERSVSLTGAPESVQKAKMMLDDIVSRGRGGPPGQFHDNANGGQNGTVQEIMIPAGKAGLVIGKGGETIKQLQERAGVKMILIQDGSQNTNVDKPLRIIGDPYKVQQACEMVMDILRERDQGGFGDRNEYGSRIGGGIDVPVPRHSVGVVIGRSGEMIKKIQNDAGVRIQFKQDDGTGPEKIAHIMGPPDRCEHAARIINDLLQSLRSGPPGPPGGPGMPPGGRGRGRGQGNWGPPGGEMTFSIPTHKCGLVIGRGGENVKAINQQTGAFVEISRQLPPNGDPNFKLFIIRGSPQQIDHAKQLIEEKIEGPLCPVGPGPGGPGPAGPMGPFNPGPFNQGPPGAPPHAGGPPPHQYPPQGWGNTYPQWQPPAPHDPSKAAAAAADPNAAWAAYYSHYYQQPPGPVPGPAPAPAAPPAQGEPPQPPPTGQSDYTKAWEEYYKKIGQQPQQPGAPPQQDYTKAWEEYYKKQAQVATGGGPGAPPGSQPDYSAAWAEYYRQQAAYYGQTPGPGGPQPPPTQQGQQQAQ
B5: sp¦P29218¦IMPA1_HUMAN (protein, UniProt P29218 1-277, looked up)
Inositol monophosphatase 1: MADPWQECMDYAVTLARQAGEVVCEAIKNEMNVMLKSSPVDLVTATDQKVEKMLISSIKEKYPSHSFIGEESVAAGEKSILTDNPTWIIDPIDGTTNFVHRFPFVAVSIGFAVNKKIEFGVVYSCVEGKMYTARKGKGAFCNGQKLQVSQQEDITKSLLVTELGSSRTPETVRMVLSNMEKLFCIPVHGIRSVGTAAVNMCLVATGGADAYYEMGIHCWDVAGAGIIVTEAGGVLMDVTGGPFDLMSRRVIAANNRILAERIAKEIQVIPLQRDDED
B6: sp¦Q99436¦PSB7_HUMAN (protein, UniProt Q99436 44-277, looked up)
Proteasome subunit beta type-7: TTIAGVVYKDGIVLGADTRATEGMVVADKNCSKIHFISPNIYCCGAGTAADTDMTTQLISSNLELHSLSTGRLPRVVTANRMLKQMLFRYQGYIGAALVLGGVDVTGPHLYSIYPHGSTDKLPYVTMGSGSLAAMAVFEDKFRPDMEEEEAKNLVSEAIAAGIFNDLGSGSNIDLCVISKNKLDFLRPYTVPNKKGTRLGRYRCEKGTTAVLTEKITPLEIEVLEETVQTMDTS
B7: Peroxiredoxin-2 (protein, UniProt P32119 2-198, looked up)
Peroxiredoxin-2: ASGNARIGKPAPDFKATAVVDGAFKEVKLSDYKGKYVVLFFYPLDFTFVCPTEIIAFSNRAEDFRKLGCEVLGVSVDSQFTHLAWINTPRKEGGLGPLNIPLLADVTRRLSEDYGVLKTDEGIAYRGLFIIDGKGVLRQITVNDLPVGRSVDEALRLVQAFQYTDEHGEVCPAGWKPGSDTIKPNVDDSKEYFSKHN
B8: sp¦Q14019¦COTL1_HUMAN (protein, UniProt Q14019 2-142, looked up)
Coactosin-like protein: ATKIDKEACRAAYNLVRDDGSAVIWVTFKYDGSTIVPGEQGAEYQHFIQQCTDDVRLFAFVRFTTGDAMSKRSKFALITWIGENVSGLQRAKTGTDKTLVKEVVQNFAKEFVISDRKELEEDFIKSELKKAGGANYDAQTE
B9: Protein Churchill (protein, UniProt Q8WUH1 1-112, looked up)
Protein Churchill: MCGDCVEKEYPNRGNTCLENGSFLLNFTGCAVCSKRDFMLITNKSLKEEDGEEIVTYDHLCKNCHHVIARHEYTFSIMDEFQEYTMLCLLCGKAEDTISILPDDPRQMTLLF
B10: sp¦Q13177¦PAK2_HUMAN (protein, UniProt Q13177 2-524, looked up)
Serine/threonine-protein …: SDNGELEDKPPAPPVRMSSTIFSTGGKDPLSANHSLKPLPSVPEEKKPRHKIISIFSGTEKGSKKKEKERPEISPPSDFEHTIHVGFDAVTGEFTGMPEQWARLLQTSNITKLEQKKNPQAVLDVLKFYDSNTVKQKYLSFTPPEKDGFPSGTPALNAKGTEAPAVVTEEEDDDEETAPPVIAPRPDHTKSIYTRSVIDPVPAPVGDSHVDGAAKSLDKQKKKTKMTDEEIMEKLRTIVSIGDPKKKYTRYEKIGQGASGTVFTATDVALGQEVAIKQINLQKQPKKELIINEILVMKELKNPNIVNFLDSYLVGDELFVVMEYLAGGSLTDVVTETCMDEAQIAAVCRECLQALEFLHANQVIHRDIKSDNVLLGMEGSVKLTDFGFCAQITPEQSKRSTMVGTPYWMAPEVVTRKAYGPKVDIWSLGIMAIEMVEGEPPYLNENPLRALYLIATNGTPELQNPEKLSPIFRDFLNRCLEMDVEKRGSAKELLQHPFLKLAKPLSSLTPLIMAAKEAMKSNR

System: human HL60 cells
Experiment: SWATH-MS proteomics, differential protein representation, akirin2 KO vs WT HL60 cells
Format: cell-based
Settings: akirin2 KO vs WT HL60 cells
In short: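 Differential representation compares akirin2 KO with WT HL60 across three biological replicates, 5 µg digest each, acquired by data-independent SWATH on a 120-min gradient. Library built from combined IDA runs searched with Paragon; proteins accepted at 1% FDR, with total-area-sum normalization.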

[1] = SWATH-MS, over-represented in KO

Molecule	Fold Change (sheet "Over-represented in KO")	Log (Fold Change) (sheet "Over-represented in KO")	Fold Change [1]	Log (Fold Change) [1]
B1	1.154	0.06211	–	–
B2	1.158	0.06384	–	–
B3	1.162	0.06526	–	–
B4	1.125	0.05126	–	–
B5	1.12	0.04931	–	–
B6	1.138	0.056	–	–
B7	–	–	2.923	0.4659
B8	1.126	0.0517	–	–
B9	–	–	2.847	0.4544
B10	1.114	0.04699	–	–
